The values below come from article PMC8894971, “ENB1 encodes a cellulose synthase 5 that directs synthesis of cell wall ingrowths in maize basal endosperm transfer cells”.

For series [1], the target named is T1, MRP1 (His-TF-MRP1) (Zea mays, UniProt K7V5I7 1-241).
T1 sequence: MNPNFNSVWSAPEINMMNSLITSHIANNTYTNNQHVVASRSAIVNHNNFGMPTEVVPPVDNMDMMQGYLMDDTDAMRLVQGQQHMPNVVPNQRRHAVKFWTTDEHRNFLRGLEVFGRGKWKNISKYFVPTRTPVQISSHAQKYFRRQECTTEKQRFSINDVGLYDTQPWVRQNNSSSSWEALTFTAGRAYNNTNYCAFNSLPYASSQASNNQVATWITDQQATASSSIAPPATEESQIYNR
The series is described as follows: EMSA; LightShift EMSA kit standard protocol, ~200 ng protein, 5 ng biotin probe, 6% native polyacrylamide gel; buffer, salt, pH and temperature not stated. The following applies: protein: recombinant; tags: N-terminal His-TF (trigger factor, pCold-TF); blunt (duplex implied). A general note: A gel shift assay detects complexes by their altered migration in electrophoresis.

The target in series [2] is T1, MRP1 (His-TF-MRP1). The series is described as follows: EMSA; labeled Mu probe; no shifted band; LightShift EMSA kit standard protocol, ~200 ng protein, 5 ng biotin probe, 6% native polyacrylamide gel; buffer, salt, pH and temperature not stated. The settings on record: protein: recombinant; tags: N-terminal His-TF (trigger factor, pCold-TF); blunt (duplex implied).

B1: ENB1 promoter WT probe (dsDNA)
DNA 1: CTACTTATTATCTACATATCTATGTGACTA
DNA 2: TAGTCACATAGATATGTAGATAATAAGTAG
Take B1: the binding result in the series with MRP1 (His-TF-MRP1) [1] is listed as “binds”.

B2: ENB1 promoter Mu probe (dsDNA)
DNA 1: CTACTTATGAGCGACAGAGCGATGTGACTA
DNA 2: TAGTCACATCGCTCTGTCGCTCATAAGTAG
Regarding B2, the binding result in the series with MRP1 (His-TF-MRP1) [2] was “no binding”.
